Reference: publication PMC9482650, “Quantitative fragmentomics allow affinity mapping of interactomes” (Nature Communications, 2022)

B1: JUP, P14923 (peptide)
chain: PYPTADHMLA
B2: ADGRA3, Q8IWK6 (peptide)
chain: TGLWKHETTV

What follows are binders tested against T1, LNX2_3, Q8N448 (assay: holdup assay). Settings: plain residues with an end cap or a label only (N-terminal biotin on a linker: ado-ado).
T1 sequence (Q8N448 463-564, limits assumed, looked up): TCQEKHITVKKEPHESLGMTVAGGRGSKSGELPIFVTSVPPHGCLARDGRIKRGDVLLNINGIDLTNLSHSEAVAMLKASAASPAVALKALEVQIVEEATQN
Design: key: below the threshold = too weak to quantify, mostly under pKd 3.1 to 4
With B1 the pKd was “below the threshold”. In the case of B2, the pKd is reported as “below the threshold”.

Each binder was assayed against IL16_3, Q14005 (assay: holdup assay). Settings: plain residues with an end cap or a label only (N-terminal biotin on a linker: ado-ado).
Chain of IL16_3, Q14005 (Q14005 1107-1207): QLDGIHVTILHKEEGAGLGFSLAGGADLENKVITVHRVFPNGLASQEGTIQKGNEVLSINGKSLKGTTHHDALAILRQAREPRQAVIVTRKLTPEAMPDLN
Design: key: below the threshold = too weak to quantify, mostly under pKd 3.1 to 4
For B1, the pKd was “below the threshold”. With B2 the pKd was “below the threshold”.

These binders were tested against TJP2_1, Q9UDY2 (assay: holdup assay). Settings: plain residues with an end cap or a label only (N-terminal biotin on a linker: ado-ado).
Chain of TJP2_1, Q9UDY2 (Q9UDY2 24-128): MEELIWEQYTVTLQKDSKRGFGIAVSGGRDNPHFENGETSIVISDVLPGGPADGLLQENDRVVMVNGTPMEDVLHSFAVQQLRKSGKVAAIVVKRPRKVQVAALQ
Design: key: below the threshold = too weak to quantify, mostly under pKd 3.1 to 4
For B1, the pKd was “below the threshold”. B2 gave a pKd of 3.65.

Each binder was assayed against T2, DLG3_3, Q92796 (assay: holdup assay). Settings: plain residues with an end cap or a label only (N-terminal biotin on a linker: ado-ado).
T2 sequence (Q92796 374-475, limits assumed, looked up): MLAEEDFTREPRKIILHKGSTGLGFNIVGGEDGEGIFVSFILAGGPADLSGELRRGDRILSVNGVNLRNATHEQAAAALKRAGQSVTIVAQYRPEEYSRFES
Design: key: below the threshold = too weak to quantify, mostly under pKd 3.1 to 4
With B1 the pKd was “below the threshold”. In the case of B2, the pKd is reported as 4.77.

Each binder was assayed against T3, LNX2_2, Q8N448 (assay: holdup assay). Settings: plain residues with an end cap or a label only (N-terminal biotin on a linker: ado-ado).
T3 sequence (Q8N448 334-432, limits assumed, looked up): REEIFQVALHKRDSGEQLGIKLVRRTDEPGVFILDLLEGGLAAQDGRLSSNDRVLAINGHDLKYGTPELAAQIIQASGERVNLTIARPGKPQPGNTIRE
Design: key: below the threshold = too weak to quantify, mostly under pKd 3.1 to 4
B1 was tested, and the pKd was “below the threshold”. Binder B2 has a pKd of 4.93.

The binders below were run against MAGI2_3, Q86UL8 (assay: holdup assay). Settings: plain residues with an end cap or a label only (N-terminal biotin on a linker: ado-ado).
Chain of MAGI2_3, Q86UL8 (Q86UL8 600-682): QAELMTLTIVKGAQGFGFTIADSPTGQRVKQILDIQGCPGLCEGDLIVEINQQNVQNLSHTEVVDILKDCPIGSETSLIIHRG
Design: key: below the threshold = too weak to quantify, mostly under pKd 3.1 to 4
For B1, the pKd was “below the threshold”. B2 gave a pKd of 4.02.

What follows are binders tested against NHERF4_1, Q86UT5-2 (assay: holdup assay). Settings: plain residues with an end cap or a label only (N-terminal biotin on a linker: ado-ado).
Chain of NHERF4_1, Q86UT5-2 (Q86UT5 other isoform, or with tags, fused parts or gaps): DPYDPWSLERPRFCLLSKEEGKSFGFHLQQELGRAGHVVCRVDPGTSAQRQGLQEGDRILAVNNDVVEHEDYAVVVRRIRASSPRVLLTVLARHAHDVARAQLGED
Design: key: below the threshold = too weak to quantify, mostly under pKd 3.1 to 4
For B1, the pKd was “below the threshold”. For B2, the pKd was “below the threshold”.

These binders were tested against T4, GRIP1_5, Q9Y3R0 (assay: holdup assay). Settings: plain residues with an end cap or a label only (N-terminal biotin on a linker: ado-ado).
T4 sequence (Q9Y3R0 568-668, limits assumed, looked up): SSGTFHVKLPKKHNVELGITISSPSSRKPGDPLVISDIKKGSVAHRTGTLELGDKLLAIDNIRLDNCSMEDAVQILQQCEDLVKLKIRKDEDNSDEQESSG
Design: key: below the threshold = too weak to quantify, mostly under pKd 3.1 to 4
In the case of B1, the pKd is reported as “below the threshold”. With B2 the pKd was “below the threshold”.

Each binder was assayed against T5, DVL3, Q92997 (assay: holdup assay). Settings: plain residues with an end cap or a label only (N-terminal biotin on a linker: ado-ado).
T5 sequence (Q92997 244-331, limits assumed, looked up): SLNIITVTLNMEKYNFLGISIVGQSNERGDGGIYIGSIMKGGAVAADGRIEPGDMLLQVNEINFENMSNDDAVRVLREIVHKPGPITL
Design: key: below the threshold = too weak to quantify, mostly under pKd 3.1 to 4
In the case of B1, the pKd is reported as “below the threshold”. For B2, the pKd was “below the threshold”.

Each binder was assayed against T6, DFNB31_2, Q9P202 (assay: holdup assay). Settings: plain residues with an end cap or a label only (N-terminal biotin on a linker: ado-ado).
T6 sequence (Q9P202 274-371, limits assumed, looked up): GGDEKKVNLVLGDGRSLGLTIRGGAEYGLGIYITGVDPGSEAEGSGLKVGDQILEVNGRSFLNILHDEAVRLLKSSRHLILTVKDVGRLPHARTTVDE
Design: key: below the threshold = too weak to quantify, mostly under pKd 3.1 to 4
B1 was tested, and the pKd was “below the threshold”. For B2, the pKd was “below the threshold”.

These binders were tested against T7, MPP2, Q14168 (assay: holdup assay). Settings: plain residues with an end cap or a label only (N-terminal biotin on a linker: ado-ado).
T7 sequence (Q14168 180-250, limits assumed, looked up): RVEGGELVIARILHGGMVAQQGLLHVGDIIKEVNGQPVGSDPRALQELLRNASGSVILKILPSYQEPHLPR
Design: key: below the threshold = too weak to quantify, mostly under pKd 3.1 to 4
B1 was tested, and the pKd was “below the threshold”. B2 was tested, and the pKd was “below the threshold”.

These binders were tested against PTPN3, P26045 (assay: holdup assay). Settings: plain residues with an end cap or a label only (N-terminal biotin on a linker: ado-ado).
Chain of PTPN3, P26045 (P26045 505-587): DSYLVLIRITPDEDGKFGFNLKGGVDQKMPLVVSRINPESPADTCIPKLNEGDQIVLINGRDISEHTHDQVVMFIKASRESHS
Design: key: below the threshold = too weak to quantify, mostly under pKd 3.1 to 4
For B1, the pKd was 3.97. Binder B2 has a pKd of 4.5.

What follows are binders tested against MAGI1_2, Q96QZ7 (assay: holdup assay). Settings: plain residues with an end cap or a label only (N-terminal biotin on a linker: ado-ado).
Chain of MAGI1_2, Q96QZ7 (Q96QZ7 456-580): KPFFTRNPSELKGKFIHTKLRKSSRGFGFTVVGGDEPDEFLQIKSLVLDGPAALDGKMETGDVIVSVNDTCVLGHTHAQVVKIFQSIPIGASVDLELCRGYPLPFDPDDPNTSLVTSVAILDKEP
Design: key: below the threshold = too weak to quantify, mostly under pKd 3.1 to 4
B1 was tested, and the pKd was “below the threshold”. In the case of B2, the pKd is reported as 4.91.

Each binder was assayed against DLG1_1, Q12959 (assay: holdup assay). Settings: plain residues with an end cap or a label only (N-terminal biotin on a linker: ado-ado).
Design: key: below the threshold = too weak to quantify, mostly under pKd 3.1 to 4
With B1 the pKd was “below the threshold”. B2 was tested, and the pKd was 5.12.

What follows are binders tested against GRIP2_6, Q9C0E4 (assay: holdup assay). Settings: plain residues with an end cap or a label only (N-terminal biotin on a linker: ado-ado).
Chain of GRIP2_6, Q9C0E4 (Q9C0E4 648-740): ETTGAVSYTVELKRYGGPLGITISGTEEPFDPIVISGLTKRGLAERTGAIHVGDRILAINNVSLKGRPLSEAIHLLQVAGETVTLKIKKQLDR
Design: key: below the threshold = too weak to quantify, mostly under pKd 3.1 to 4
B1 was tested, and the pKd was “below the threshold”. In the case of B2, the pKd is reported as 3.55.

These binders were tested against LIMK2, P53671 (assay: holdup assay). Settings: plain residues with an end cap or a label only (N-terminal biotin on a linker: ado-ado).
Chain of LIMK2, P53671 (P53671 143-248): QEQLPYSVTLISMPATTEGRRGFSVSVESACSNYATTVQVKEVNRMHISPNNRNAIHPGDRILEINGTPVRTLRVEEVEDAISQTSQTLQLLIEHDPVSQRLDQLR
Design: key: below the threshold = too weak to quantify, mostly under pKd 3.1 to 4
In the case of B1, the pKd is reported as “below the threshold”. In the case of B2, the pKd is reported as “below the threshold”.

The binders below were run against T8, PTPN13_1, Q12923 (assay: holdup assay). Settings: plain residues with an end cap or a label only (N-terminal biotin on a linker: ado-ado).
T8 sequence (Q12923 1088-1188, limits assumed, looked up): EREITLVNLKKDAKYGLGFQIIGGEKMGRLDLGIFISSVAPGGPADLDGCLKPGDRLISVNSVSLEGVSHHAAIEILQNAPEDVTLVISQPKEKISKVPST
Design: key: below the threshold = too weak to quantify, mostly under pKd 3.1 to 4
B1 was tested, and the pKd was “below the threshold”. For B2, the pKd was “below the threshold”.

The binders below were run against SCRIB_2, Q14160 (assay: holdup assay). Settings: plain residues with an end cap or a label only (N-terminal biotin on a linker: ado-ado).
Chain of SCRIB_2, Q14160 (Q14160 857-960): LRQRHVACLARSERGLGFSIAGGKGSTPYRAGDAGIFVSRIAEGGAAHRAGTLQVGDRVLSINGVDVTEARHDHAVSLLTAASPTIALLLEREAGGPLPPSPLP
Design: key: below the threshold = too weak to quantify, mostly under pKd 3.1 to 4
In the case of B1, the pKd is reported as “below the threshold”. Binder B2 has a pKd of 4.56.

The binders below were run against T9, LIN7C, Q9NUP9 (assay: holdup assay). Settings: plain residues with an end cap or a label only (N-terminal biotin on a linker: ado-ado).
T9 sequence (Q9NUP9 88-185, limits assumed, looked up): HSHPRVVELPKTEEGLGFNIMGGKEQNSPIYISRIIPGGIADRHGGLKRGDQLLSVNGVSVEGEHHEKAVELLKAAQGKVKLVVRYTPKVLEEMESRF
Design: key: below the threshold = too weak to quantify, mostly under pKd 3.1 to 4
B1 showed a pKd of 3.87. With B2 the pKd was 4.6.

These binders were tested against SCRIB_3, Q14160 (assay: holdup assay). Settings: plain residues with an end cap or a label only (N-terminal biotin on a linker: ado-ado).
Chain of SCRIB_3, Q14160 (Q14160 999-1103): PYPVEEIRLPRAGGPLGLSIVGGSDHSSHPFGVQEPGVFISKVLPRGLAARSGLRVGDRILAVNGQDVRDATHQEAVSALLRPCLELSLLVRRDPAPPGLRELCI
Design: key: below the threshold = too weak to quantify, mostly under pKd 3.1 to 4
In the case of B1, the pKd is reported as “below the threshold”. B2 showed a pKd of 4.88.

Each binder was assayed against FRMPD3, Q5JV73 (assay: holdup assay). Settings: plain residues with an end cap or a label only (N-terminal biotin on a linker: ado-ado).
Chain of FRMPD3, Q5JV73 (Q5JV73 12-100): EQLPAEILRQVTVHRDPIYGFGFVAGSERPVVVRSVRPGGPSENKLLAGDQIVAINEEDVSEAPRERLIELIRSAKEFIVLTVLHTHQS
Design: key: below the threshold = too weak to quantify, mostly under pKd 3.1 to 4
For B1, the pKd was “below the threshold”. With B2 the pKd was “below the threshold”.

These binders were tested against T10, DFNB31_3, Q9P202 (assay: holdup assay). Settings: plain residues with an end cap or a label only (N-terminal biotin on a linker: ado-ado).
T10 sequence (Q9P202 811-907, limits assumed, looked up): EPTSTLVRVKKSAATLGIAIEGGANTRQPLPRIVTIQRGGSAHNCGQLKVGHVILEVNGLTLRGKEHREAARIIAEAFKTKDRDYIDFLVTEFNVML
Design: key: below the threshold = too weak to quantify, mostly under pKd 3.1 to 4
In the case of B1, the pKd is reported as 3.83. For B2, the pKd was 3.85.

These binders were tested against T11, GRIP1_7, Q9Y3R0 (assay: holdup assay). Settings: plain residues with an end cap or a label only (N-terminal biotin on a linker: ado-ado).
T11 sequence (Q9Y3R0 999-1096, limits assumed, looked up): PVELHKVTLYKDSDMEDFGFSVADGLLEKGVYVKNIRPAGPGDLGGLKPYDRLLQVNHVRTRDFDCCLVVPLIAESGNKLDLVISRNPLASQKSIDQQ
Design: key: below the threshold = too weak to quantify, mostly under pKd 3.1 to 4
B1 was tested, and the pKd was “below the threshold”. In the case of B2, the pKd is reported as “below the threshold”.

The binders below were run against Inadl_4, Q8NI35 (assay: holdup assay). Settings: plain residues with an end cap or a label only (N-terminal biotin on a linker: ado-ado).
Chain of Inadl_4, Q8NI35 (Q8NI35 547-651): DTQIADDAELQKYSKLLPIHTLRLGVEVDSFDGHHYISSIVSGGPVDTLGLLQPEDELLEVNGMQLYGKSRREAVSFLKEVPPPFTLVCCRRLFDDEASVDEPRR
Design: key: below the threshold = too weak to quantify, mostly under pKd 3.1 to 4
In the case of B1, the pKd is reported as “below the threshold”. B2 was tested, and the pKd was “below the threshold”.

What follows are binders tested against LNX1_1, Q8TBB1 (assay: holdup assay). Settings: plain residues with an end cap or a label only (N-terminal biotin on a linker: ado-ado).
Chain of LNX1_1, Q8TBB1 (Q8TBB1 261-371): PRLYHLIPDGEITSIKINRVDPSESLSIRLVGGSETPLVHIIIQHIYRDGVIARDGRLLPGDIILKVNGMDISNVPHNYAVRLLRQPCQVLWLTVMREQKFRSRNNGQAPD
Design: key: below the threshold = too weak to quantify, mostly under pKd 3.1 to 4
In the case of B1, the pKd is reported as “below the threshold”. Binder B2 has a pKd of 3.78.

What follows are binders tested against T12, NHERF3_1, Q5T2W1 (assay: holdup assay). Settings: plain residues with an end cap or a label only (N-terminal biotin on a linker: ado-ado).
T12 sequence (Q5T2W1 4-100, limits assumed, looked up): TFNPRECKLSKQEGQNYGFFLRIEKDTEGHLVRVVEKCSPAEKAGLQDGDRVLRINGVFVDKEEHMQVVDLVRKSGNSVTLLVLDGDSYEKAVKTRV
Design: key: below the threshold = too weak to quantify, mostly under pKd 3.1 to 4
B1 was tested, and the pKd was “below the threshold”. B2 gave a pKd of 3.63.
